# Experimental data reported in paper PMC10810746.
# Biological target: RbcL (large subunit of form I ribulose 1,5-bisphosphate carboxylase oxygenase) (Synechococcus sp. PCC 7335)
# Test: cryo-EM structure; single-particle cryo-EM of form I Rubisco found in the same fraction; 2.35 Å, D4 symmetry
substance,measurement,value
"RbcL (large subunit of form I ribulose 1,5-bisphosphate carboxylase oxygenase) (enzyme)",stoichiometry N,8
